Test results reported in PMC7199859 (The Journal of Cell Biology, 2020).
One block for each molecule: values may come before it.

Tests used:
[1] = target: GAS2L1 S352D (Bio-GFP-tagged) (human) (UniProt Q99501); assay: pull-down
[2] = target: GAS2L1 S352A (Bio-GFP-tagged) (human) (UniProt Q99501); assay: pull-down
[3] = target: taxol-stabilized microtubules from porcine brain α/β-tubulin (porcine) (UniProt P02550); assay: co-sedimentation
[4] = target: T1, His6-CH (recombinant GAS2L1 CH domain, His6 tagged) (human, UniProt Q99501 1-196); assay: pull-down
T1 sequence (looked up): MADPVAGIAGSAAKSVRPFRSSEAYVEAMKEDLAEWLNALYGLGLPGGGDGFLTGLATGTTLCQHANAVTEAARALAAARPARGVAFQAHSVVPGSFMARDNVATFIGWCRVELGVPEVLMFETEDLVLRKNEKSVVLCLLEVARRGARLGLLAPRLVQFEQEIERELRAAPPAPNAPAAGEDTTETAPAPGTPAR

actin-binding activity relative to WT GAS2L1 [1]: 46 % higher
actin-binding activity relative to WT GAS2L1 [2]: 62 % lower
Molecule: actin (endogenous, HEK293T; detected with anti-β-actin) (from UniProt P60709 1-375) (natural protein)

microtubule-binding activity relative to the GAR protein [3]: 47 % lower
B1: His6-FLAG-CH-GAR (recombinant GAS2L1 1-300) (domain or fragment)
chain: MADPVAGIAGSAAKSVRPFRSSEAYVEAMKEDLAEWLNALYGLGLPGGGDGFLTGLATGTTLCQHANAVTEAARALAAARPARGVAFQAHSVVPGSFMARDNVATFIGWCRVELGVPEVLMFETEDLVLRKNEKSVVLCLLEVARRGARLGLLAPRLVQFEQEIERELRAAPPAPNAPAAGEDTTETAPAPGTPARGPRMTPSDLRNLDELVREILGRCTCPDQFPMIKVSEGKYRVGDSSLLIFVRVLRSHVMVRVGGGWDTLEHYLDKHDPCRCSSTAHRPPQPRVCTFSPQRVSPTT

binding result [4]: binds
B2: His6-FLAG-GAR (recombinant GAS2L1 GAR protein, 197-300) (domain or fragment, human, UniProt Q99501 197-300, looked up)
chain: GPRMTPSDLRNLDELVREILGRCTCPDQFPMIKVSEGKYRVGDSSLLIFVRVLRSHVMVRVGGGWDTLEHYLDKHDPCRCSSTAHRPPQPRVCTFSPQRVSPTT
